This test addresses SDF-1 receptor CXCR4 on INS-1 clonal beta cells (UniProt O08565). Nature of the test: cell-based or functional assay.

Sequence of SDF-1 receptor CXCR4 on INS-1 clonal beta cells (O08565 whole entry): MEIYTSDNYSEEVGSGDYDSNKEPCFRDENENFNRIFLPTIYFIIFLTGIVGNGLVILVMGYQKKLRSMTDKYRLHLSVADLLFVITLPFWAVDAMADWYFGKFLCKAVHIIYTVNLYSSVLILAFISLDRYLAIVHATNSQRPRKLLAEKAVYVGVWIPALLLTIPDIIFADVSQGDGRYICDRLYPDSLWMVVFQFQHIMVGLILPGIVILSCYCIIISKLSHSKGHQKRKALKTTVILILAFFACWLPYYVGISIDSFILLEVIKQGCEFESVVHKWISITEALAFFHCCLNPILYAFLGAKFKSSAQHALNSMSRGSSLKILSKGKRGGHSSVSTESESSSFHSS

Substance “stromal cell-derived factor-1 (SDF-1) (ligand)” returned a Wnt signaling reporter assay (TOPflash/FOPflash luciferase) in INS-1 cells of 0.4 nM.

(Values after patent US20120053119A1, “THERAPEUTIC METHOD FOR INCREASING PANCREATIC BETA CELL MASS” (priority 2009, published 2012).)
